# Measurements taken from the supplement of paper PMC11780869.
# Test system: Bacillus subtilis
# Assay: cleaved RNA product abundance (RNA/gDNA barcode ratio) relative to median wild-type variant (ratio to wild type); higher = more accumulation of the downstream cleavage product
# In short: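 In LB at 37°C, B. subtilis cultures went from OD600 0.0003 to 0.3. Their chromosomes held barcoded reporter mRNAs, truncated aprE or tetM, with RNase Y cleavage-site windows mutagenized via oligos at a 9% error rate. Cleaved RNA, chosen by gel, was reverse transcribed and barcode-sequenced alongside genomic DNA barcodes with UMI collapsing, giving a per-construct RNA:gDNA ratio scaled to the median construct with the unmutated site. This scaled ratio is termed cleaved product abundance.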
# [1] = experiment (reporter, strain, medium): exp 2b: truncated aprE reporter, strain BJT200, cleavage site: cggR-gapA (positions -7 to +36 mutated)
# [2] = experiment (reporter, strain, medium): exp 4a: truncated aprE reporter, strain BJT201 with 2% xylose (RNase J1 expressed), cleavage site: cggR-gapA (positions -7 to +36 mutated)
# [3] = experiment (reporter, strain, medium): exp 8a: truncated aprE reporter, strain BJT201 with 2% xylose (RNase J1 expressed), cleavage site: glnRA (positions -5 to +31 mutated)
Sequence,cleaved RNA product abundance [1],cleaved RNA product abundance [2],cleaved RNA product abundance [3],other results
ACAGACGAAGGAGCCGCAAAGAAATTATTAAGGGATGAATAATTCCTCAATATAAATATCTCTCACTTATTTAAA,0.457,0.415,–,–
ACAGACGAAGGAGCCGCAAATAAGTTATTAAGGGCTGAATAATCCCTCAATATAAATATCTCTCACTTATTTAAA,–,0.627,–,–
ACAGACGAAGGAGCCGCAAAGAAGTCATTAAGGGATGTATAATCCCTCAATATAAATATCTCTCACTTATTTAAA,0.16,–,–,–
CGACATGTCCCGCTTCTTTCATTAATCCGTTAGCAAGTGTTTTGTTATATACATTTACCTTTTAAGAGGAGGAAT,–,–,0.21,–
CGACATGTCCCGCTTCTTTCATTAATCTGTTAGCAACTGTTTTGCTATATACATATACCTTTTAAGAGGAGGAAT,–,–,0.829,–
CGACATGTCCCGCTTCTTTCATTAATCCGTTAGAAACAGTTTTGCTATATATATTTACATTTTAAGAGGAGGAAT,–,–,0.362,–
ACAGACGAAGGAGCCGCAAAGAAATTAGTAAGGGATGAATAATCCCTCAATATAAATATCTCTCACTTATTTAAA,0.339,0.34,–,–
ACAGACGAAGGAGCCGCAAAGAACTTATTACGGGATGAATAATCCCTCAATATAAATATCTCTCACTTATTTAAA,–,0.248,–,–
ACAGACGAAGGAGCCGCAAAGTAGTTATTAAGGGATAAATAATCCCTCAATATAAATATCTCTCACTTATTTAAA,–,0.9,–,–
ACAGACGAAGGAGCCGCAAAGAACTTATTAAGGGATGAATAATTCCTCAATATAAATATCTCTCACTTATTTAAA,0.315,0.32,–,–
ACAGACGAAGGAGCCGCAAAAAAGTTATTAAGGGATGAATAGTCCCTCAATATAAATATCTCTCACTTATTTAAA,0.786,0.961,–,–
CGACATGTCCCGCTTCTTTCATTAATCCGTTAACAACTGTGTTGCTATATACATTTACCTTTTAAGAGGAGGAAT,–,–,0.24,–
CGACATGTCCCGCTTCTTTCATTAATCCGTTAGCAACTGTTTTGATAAATACATTTACCTTTTAAGAGGAGGAAT,–,–,0.384,–
CGACATGTCCCGCTTCTTTCATTAATCCTTTAGCAACTGTTTTGCTATATACATTAACCTTTTAAGAGGAGGAAT,–,–,0.846,–
ACAGACGAAGGAGCCGCAAAGAAGTTATTCTGGGATGAATAATCCCTCAATATAAATATCTCTCACTTATTTAAA,–,0.742,–,–
ACAGACGAAGGAGCCGCAAAGAAGTTATTAAGGGTTGAATAATCCCTCAATTTAAATATCTCTCACTTATTTAAA,–,0.132,–,–
ACAGACGAAGGAGCTGCAAAGAAGTTATTAAGGAATGAATAATCCCTCAATATAAATATCTCTCACTTATTTAAA,–,–,–,"cleaved RNA product abundance (experiment (reporter, strain, medium): exp 6: tetM reporter, strain 168, cleavage site: cggR-gapA (positions -7 to +36 mutated)): 0.134"
ACAGACGAAGGAGCCGCAAAGAAGTTATTAAGGAATGAATAATCCCTCAATATAAATAACTCTCACTTATTTAAA,–,0.21,–,–
ACAGACGAAGGAGCCGCAAAGAAGTTATTAAGGGATGAATGATCCCACAATATAAATATCTCTCACTTATTTAAA,0.121,0.101,–,–
ACAGACGAAGGAGCCGCAAAGAAATTATTAAGGGATGAATAATCCCTCAATATATATATCTCTCACTTATTTAAA,–,0.766,–,–
CGACATGTCCCGCTTCTTTCATTATTCCGTTAGCAACTGTTTTGCTATATACATTTACCTTTTAAGAGGAGGAAT,–,–,1.42,–
CGACATGTCCCGCTTCTTTCATTAATCCTTTAGCAACTGTTTTGCCATATACATTTACCTTTTAAGAGGAGGAAT,–,–,0.2,–
ACAGACGAAGGAGCCGCAAAGAATTTATTAAGGGATGAATAATCCTTCAATATAAATATCTCTCACTTATTTAAA,–,0.397,–,–
ACAGACGAAGGAGCCGCAATGAAGTTATTAAGGGATGAATAATCCCTCAATATAAAAATCTCTCACTTATTTAAA,0.872,1.03,–,–
ACAGACGAAGGAGCCGCAAATAAGTTATTAAGGGATGAATAACCCCTCAATATAAATATCTCTCACTTATTTAAA,0.582,0.494,–,–
ACAGACGAAGGAGCCGCAAAGAATTTATTAAGGGATAAATAATCCCTCAATATAAATATCTCTCACTTATTTAAA,0.767,0.595,–,–
